Data taken from patent publication US20110052582A1 (Hoffmann-La Roche, published 2011).

T1: Soluble CDCP1 extracellular domain (CDCP1-ECD) (SEQ ID NO:30) fused to Streptavidin Binding Protein (SBP) (human, UniProt Q9H5V8 30-663)
T1 construct: also called SBP-CDCP1-ECD
T1 sequence: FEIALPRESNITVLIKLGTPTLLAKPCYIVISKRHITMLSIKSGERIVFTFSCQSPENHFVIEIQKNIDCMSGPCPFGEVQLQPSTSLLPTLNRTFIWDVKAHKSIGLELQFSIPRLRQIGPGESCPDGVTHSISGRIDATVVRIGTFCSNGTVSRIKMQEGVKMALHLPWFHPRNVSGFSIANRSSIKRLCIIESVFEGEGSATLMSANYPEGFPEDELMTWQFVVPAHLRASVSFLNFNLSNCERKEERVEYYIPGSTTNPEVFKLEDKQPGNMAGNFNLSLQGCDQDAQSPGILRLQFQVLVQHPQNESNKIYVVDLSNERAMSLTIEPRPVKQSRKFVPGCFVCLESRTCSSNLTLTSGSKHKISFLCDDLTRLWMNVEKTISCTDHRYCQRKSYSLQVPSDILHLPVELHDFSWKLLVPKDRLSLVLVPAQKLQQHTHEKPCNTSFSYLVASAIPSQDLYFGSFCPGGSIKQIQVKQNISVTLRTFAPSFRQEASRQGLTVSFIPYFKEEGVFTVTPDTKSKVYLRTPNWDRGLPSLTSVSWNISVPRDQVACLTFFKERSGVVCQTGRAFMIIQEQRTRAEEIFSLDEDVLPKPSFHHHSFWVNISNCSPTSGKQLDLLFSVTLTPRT

B1: hHC4-d / hLC4-J (antibody, V domains shown)
VH: EVQLLESGGGLVQPGGSLRLSCAASGFTFNSYGMSWVRQAPGKGLEWVSTISSGGSYTYYPDSVKGRFTISRDNSKNTLYLQMNSLRAEDTAVYYCAKHPDYDGVWFAYWGQGTLVTVSS
VL: EIVMTQSPATLSLSPGERATMSCRASSSVFYLHWYQQKPGQAPRLWIYDTSKLASGIPARFSGSGSGTDFTLTISSLQPEDFAVYYCQQWNSNPPTFGGGTKVEIK
B2: hHC4-H / hLC4-c (antibody, V domains shown)
VH: EVQLVESGGGLVQPGGSLRLSCAASGFTFNSYGMSWVRQAPGKGLEWVATISSGGSYKYYVDSVKGRFTISRDNAKNSLYLQMNSLRAEDTAVYYCARHPDYDGVWFAYWGQGTLVTVSS
VL: EIVMTQSPATLSVSPGERATLSCSVSSSVFYVHWYQQKPGQAPRLLIYDTSKLASGIPARFSGSGSGTEFTLTISSLQSEDFAVYYCQQWNSNPPTFGGGTKVEIK
notes: also called Humanized CUB4 Antibody No. 113
B3: hHC4-07 / hLC4-c (antibody, V domains shown)
VH: EVQLLESGGGLVQPGGSLRLSCAASGFTFNSYAMSWVRQAPGKGLEWVSTISSGGSYTYYPDSVKGRFTISRDNSKNTLYLQMNSLRAEDTAVYYCAKHPDYDGVWFAYWGQGTLVTVSS
VL: EIVMTQSPATLSVSPGERATLSCSVSSSVFYVHWYQQKPGQAPRLLIYDTSKLASGIPARFSGSGSGTEFTLTISSLQSEDFAVYYCQQWNSNPPTFGGGTKVEIK
B4: hHC4-I / hLC4-b (antibody, V domains shown)
VH: EVQLLESGGGLVQPGGSLRLSCAASGFTFNSYAMSWVRQAPGKGLEWVSAISSGGSYTYYADSVKGRFTISRDNSKNTLYLQMNSLRAEDTAVYYCAKHPDYDGVWFAYWGQGTLVTVSS
VL: EIVLTQSPATLSLSPGERATLSCSVSSSVFYVHWYQQKPGQAPRLLIYDTSKLASGIPARFSGSGSGTDYTLTISSLEPEDFAVYYCQQWNSNPPTFGGGTKVEIK
B5: hHC4-07 / hLC4-d (antibody, V domains shown)
VH: EVQLLESGGGLVQPGGSLRLSCAASGFTFNSYAMSWVRQAPGKGLEWVSTISSGGSYTYYPDSVKGRFTISRDNSKNTLYLQMNSLRAEDTAVYYCAKHPDYDGVWFAYWGQGTLVTVSS
VL: EIVMTQSPATLSVSPGERATLSCSVSSSVFYVHWYQQKPGQAPRLLIYDTSKLASGIPARFSGSGSGTEYTLTISSLQSEDFAVYYCQQWNSNPPTFGGGTKVEIK
B6: hHC4-03 / hLC4-c (antibody, V domains shown)
VH: EVQLLESGGGLVQPGGSLRLSCAASGFTFNSYGMSWVRQAPGKGLEWVSAISSGGSYTYYPDSVKGRFTISRDNSKNTLYLQMNSLRAEDTAVYYCAKHPDYDGVWFAYWGQGTLVTVSS
VL: EIVMTQSPATLSVSPGERATLSCSVSSSVFYVHWYQQKPGQAPRLLIYDTSKLASGIPARFSGSGSGTEFTLTISSLQSEDFAVYYCQQWNSNPPTFGGGTKVEIK
B7: hHC4-04 / hLC4-c (antibody, V domains shown)
VH: EVQLLESGGGLVQPGGSLRLSCAASGFTFNSYGMSWVRQAPGKGLEWVSTISSGGSYTYYPDSVKGRFTISRDNSKNTLYLQMNSLRAEDTAVYYCARHPDYDGVWFAYWGQGTLVTVSS
VL: EIVMTQSPATLSVSPGERATLSCSVSSSVFYVHWYQQKPGQAPRLLIYDTSKLASGIPARFSGSGSGTEFTLTISSLQSEDFAVYYCQQWNSNPPTFGGGTKVEIK
B8: hHC4-H / hLC4-d (antibody, V domains shown)
VH: EVQLVESGGGLVQPGGSLRLSCAASGFTFNSYGMSWVRQAPGKGLEWVATISSGGSYKYYVDSVKGRFTISRDNAKNSLYLQMNSLRAEDTAVYYCARHPDYDGVWFAYWGQGTLVTVSS
VL: EIVMTQSPATLSVSPGERATLSCSVSSSVFYVHWYQQKPGQAPRLLIYDTSKLASGIPARFSGSGSGTEYTLTISSLQSEDFAVYYCQQWNSNPPTFGGGTKVEIK
notes: also called Humanized CUB4 Antibody No. 124
B9: hHC4-d / hLC4-d (antibody, V domains shown)
VH: EVQLLESGGGLVQPGGSLRLSCAASGFTFNSYGMSWVRQAPGKGLEWVSTISSGGSYTYYPDSVKGRFTISRDNSKNTLYLQMNSLRAEDTAVYYCAKHPDYDGVWFAYWGQGTLVTVSS
VL: EIVMTQSPATLSVSPGERATLSCSVSSSVFYVHWYQQKPGQAPRLLIYDTSKLASGIPARFSGSGSGTEYTLTISSLQSEDFAVYYCQQWNSNPPTFGGGTKVEIK
B10: hHC4-04 / hLC4-d (antibody, V domains shown)
VH: EVQLLESGGGLVQPGGSLRLSCAASGFTFNSYGMSWVRQAPGKGLEWVSTISSGGSYTYYPDSVKGRFTISRDNSKNTLYLQMNSLRAEDTAVYYCARHPDYDGVWFAYWGQGTLVTVSS
VL: EIVMTQSPATLSVSPGERATLSCSVSSSVFYVHWYQQKPGQAPRLLIYDTSKLASGIPARFSGSGSGTEYTLTISSLQSEDFAVYYCQQWNSNPPTFGGGTKVEIK
B11: hHC4-03 / hLC4-d (antibody, V domains shown)
VH: EVQLLESGGGLVQPGGSLRLSCAASGFTFNSYGMSWVRQAPGKGLEWVSAISSGGSYTYYPDSVKGRFTISRDNSKNTLYLQMNSLRAEDTAVYYCAKHPDYDGVWFAYWGQGTLVTVSS
VL: EIVMTQSPATLSVSPGERATLSCSVSSSVFYVHWYQQKPGQAPRLLIYDTSKLASGIPARFSGSGSGTEYTLTISSLQSEDFAVYYCQQWNSNPPTFGGGTKVEIK
B12: hHC4-d / hLC4-c (antibody, V domains shown)
VH: EVQLLESGGGLVQPGGSLRLSCAASGFTFNSYGMSWVRQAPGKGLEWVSTISSGGSYTYYPDSVKGRFTISRDNSKNTLYLQMNSLRAEDTAVYYCAKHPDYDGVWFAYWGQGTLVTVSS
VL: EIVMTQSPATLSVSPGERATLSCSVSSSVFYVHWYQQKPGQAPRLLIYDTSKLASGIPARFSGSGSGTEFTLTISSLQSEDFAVYYCQQWNSNPPTFGGGTKVEIK
B13: hHC4-d / hLC4-K (antibody, V domains shown)
VH: EVQLLESGGGLVQPGGSLRLSCAASGFTFNSYGMSWVRQAPGKGLEWVSTISSGGSYTYYPDSVKGRFTISRDNSKNTLYLQMNSLRAEDTAVYYCAKHPDYDGVWFAYWGQGTLVTVSS
VL: EIVLTQSPATLSLSPGERATLSCRASSSVFYLHWYQQKPGQAPRLWIYDTSKLASGIPARFSGSGSGTDFTLTISSLEPEDFAVYYCQQWNSNPPTFGGGTKVEIK
B14: hHC4-d / hLC4-b (antibody, V domains shown)
VH: EVQLLESGGGLVQPGGSLRLSCAASGFTFNSYGMSWVRQAPGKGLEWVSTISSGGSYTYYPDSVKGRFTISRDNSKNTLYLQMNSLRAEDTAVYYCAKHPDYDGVWFAYWGQGTLVTVSS
VL: EIVLTQSPATLSLSPGERATLSCSVSSSVFYVHWYQQKPGQAPRLLIYDTSKLASGIPARFSGSGSGTDYTLTISSLEPEDFAVYYCQQWNSNPPTFGGGTKVEIK
B15: hHC4-d / hLC4-a (antibody, V domains shown)
VH: EVQLLESGGGLVQPGGSLRLSCAASGFTFNSYGMSWVRQAPGKGLEWVSTISSGGSYTYYPDSVKGRFTISRDNSKNTLYLQMNSLRAEDTAVYYCAKHPDYDGVWFAYWGQGTLVTVSS
VL: EIVLTQSPATLSLSPGERATLSCSVSSSVFYVHWYQQKPGQAPRLLIYDTSKLASGIPARFSGSGSGTDFTLTISSLEPEDFAVYYCQQWNSNPPTFGGGTKVEIK
B16: hHC4-d / hLC4-L (antibody, V domains shown)
VH: EVQLLESGGGLVQPGGSLRLSCAASGFTFNSYGMSWVRQAPGKGLEWVSTISSGGSYTYYPDSVKGRFTISRDNSKNTLYLQMNSLRAEDTAVYYCAKHPDYDGVWFAYWGQGTLVTVSS
VL: EIVLTQSPATLSLSPGERATMSCRASSSVFYLHWYQQKPGQAPRLWIYDTSKLASGIPARFSGSGSGTDFTLTISSLEPEDFAVYYCQQWNSNPPTFGGGTKVEIK
B17: hHC4-d / hLC4-M (antibody, V domains shown)
VH: EVQLLESGGGLVQPGGSLRLSCAASGFTFNSYGMSWVRQAPGKGLEWVSTISSGGSYTYYPDSVKGRFTISRDNSKNTLYLQMNSLRAEDTAVYYCAKHPDYDGVWFAYWGQGTLVTVSS
VL: EIVLTQSPATLSLSPGERATMSCGASSSVFYLHWYQQKPGLAPRLWIYDTSKLASGIPDRFSGSGSGTDFTLTISRLEPEDFAVYYCQQWNSNPPTFGGGTKVEIK
B18: hHC4-d / hLC4-L2 (antibody, V domains shown)
VH: EVQLLESGGGLVQPGGSLRLSCAASGFTFNSYGMSWVRQAPGKGLEWVSTISSGGSYTYYPDSVKGRFTISRDNSKNTLYLQMNSLRAEDTAVYYCAKHPDYDGVWFAYWGQGTLVTVSS
VL: EIVLTQSPATLSLSPGERATMSCSVSSSVFYLHWYQQKPGQAPRLWIYDTSKLASGIPARFSGSGSGTDFTLTISSLEPEDFAVYYCQQWNSNPPTFGGGTKVEIK
B19: chHC4 / hLC4-f (antibody, V domains shown)
VH: EVQLVESGGDLVKPGGSLKLSCAASGFTFNSYGMSWVRQTPDKRLEWVATISSGGSYTYYPDSVKGRFTISRDNAKNTLYLQMSSLKSEDTAMYYCARHPDYDGVWFAYWGQGTLVTVSA
VL: DIQMTQSPSSLSASVGDRVTITCSVSSSVFYVHWYQQKPGKAPKLLIYDTSKLASGVPSRFSGSGSGTDYTFTISSLQPEDIATYYCQQWNSNPPTFGGGTKVEIK

The binders below were run against T1, Soluble CDCP1 extracellular domain … (assay: ELISA on captured SBP-CDCP1-ECD, ratio relative to chimeric CUB4 (chHC4)).
Method in brief: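 Streptavidin plates coated overnight at 2–8° C with SBP-CDCP1-ECD HEK293 supernatant (1:15–1:40). Antibodies, undiluted or 12-step dilution, bound 90 min at room temperature; HRP anti-human IgG 1 h, ABTS read at 405/492 nm, signal expressed relative to chimeric chHC4 reference.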
With B1 the relative binding ratio was 0.38. B2 gave a relative binding ratio of 0.44. Work on B3 yielded a relative binding ratio of 0.04. Binder B4 has a relative binding ratio of 0.07. In the case of B5, the relative binding ratio is reported as 0.04. For B6, the relative binding ratio was 0.07. For B7, the relative binding ratio was 0.33. B8 gave a relative binding ratio of 0.34. Binder B9 has a relative binding ratio of 0.41. B10 gave a relative binding ratio of 0.41. B11 was tested, and the relative binding ratio was 0.07. B12 was tested, and the relative binding ratio was 0.45. B13 was tested, and the relative binding ratio was 0.52. In the case of B14, the relative binding ratio is reported as 0.38. Binder B15 has a relative binding ratio of 0.34. In the case of B16, the relative binding ratio is reported as 0.56. With B17 the relative binding ratio was 0.8. B18 gave a relative binding ratio of 0.49. Work on B19 yielded a relative binding ratio of 0.24.
